The values below come from article PMC4149556.

The target in the data set is T1, Rev (HIV-1) (UniProt P04618).
T1 sequence: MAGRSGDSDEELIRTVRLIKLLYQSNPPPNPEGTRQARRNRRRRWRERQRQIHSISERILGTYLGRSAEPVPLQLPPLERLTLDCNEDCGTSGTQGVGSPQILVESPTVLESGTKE
Kind of data set: EMSA. The following applies: native 4% PAGE; constant 32P-RRE RNA with 20, 40 or 80 ng Rev; buffer, salt, pH and temperature not given. For orientation: A gel shift assay detects complexes by their altered migration in electrophoresis.

Take “GAGAAGAGUGGUGCAGAGAGAAAAAAGAGCAGUGGGAACAAUAGGAGCUAUGUUCCUUGGGUCCUUGGGAGCAGCAGGAAGCACUAUGGGCGCAGCGUCAAUAACGCUGACGGUACAGGCCAGACAAUUACUGUCUGGUAUAGUGCAACAGCAAAACAACUUGCUGAGGGCUAUUGAGGCGCAACAACAUCUGUUGCAACUCACAGUCUGGGGCAUCAAGCAGCUCCAGGCGAGAGUCCUGGCUGUGGAAAGAUACCUAAGGGAUCAACAGCUCCUAGGGAUUUGGGGUUGCUCUGGAAGACUCAUUUGCACCACUGCUGUGCCUUGGAAUG [RREWT (40Q-45L)]”: the binding signal (% RNA shifted) was determined as 96.
